Test results from IntAct's records for PubMed 20142502.

B1: pre-mRNA splicing regulator USH1G (Homo sapiens), Q495M9 (parent)
chain: MNDQYHRAARDGYLELLKEATRKELNAPDEDGMTPTLWAAYHGNLESLRLIVSRGGDPDKCDIWGNTPLHLAASNGHLHCLSFLVSFGANIWCLDNDYHTPLDMAAMKGHMECVRYLDSIAAKQSSLNPKLVGKLKDKAFREAERRIRECAKLQRRHHERMERRYRRELAERSDTLSFSSLTSSTLSRRLQHLALGSHLPYSQATLHGTARGKTKMQKKLERRKQGGEGTFKVSEDGRKSARSLSGLQLGSDVMFVRQGTYANPKEWGRAPLRDMFLSDEDSVSRATLAAEPAHSEVSTDSGHDSLFTRPGLGTMVFRRNYLSSGLHGLGREDGGLDGVGAPRGRLQSSPSLDDDSLGSANSLQDRSCGEELPWDELDLGLDEDLEPETSPLETFLASLHMEDFAALLRQEKIDLEALMLCSDLDLRSISVPLGPRKKILGAVRRRRQAMERPPALEDTEL
partner: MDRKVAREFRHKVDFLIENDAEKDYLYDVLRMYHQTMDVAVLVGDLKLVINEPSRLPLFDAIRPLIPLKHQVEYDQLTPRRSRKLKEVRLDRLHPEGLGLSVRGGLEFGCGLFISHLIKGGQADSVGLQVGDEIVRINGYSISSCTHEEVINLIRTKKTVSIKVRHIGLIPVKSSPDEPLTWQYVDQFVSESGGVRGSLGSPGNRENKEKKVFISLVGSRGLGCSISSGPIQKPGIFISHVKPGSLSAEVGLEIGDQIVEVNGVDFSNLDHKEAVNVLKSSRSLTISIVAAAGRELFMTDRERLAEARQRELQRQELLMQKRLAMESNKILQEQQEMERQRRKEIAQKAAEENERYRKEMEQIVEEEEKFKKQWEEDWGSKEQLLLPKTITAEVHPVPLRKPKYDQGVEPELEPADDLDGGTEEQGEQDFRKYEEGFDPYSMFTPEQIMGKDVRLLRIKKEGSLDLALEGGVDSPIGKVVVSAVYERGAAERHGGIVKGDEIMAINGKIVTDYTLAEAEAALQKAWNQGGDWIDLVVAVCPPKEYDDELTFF
B2: Harmonin (Homo sapiens), Q9Y6N9 (parent)
chain: B1 partner
partner: B1 chain

Variants of: B1
Conditions: with ush1c_human USH1C, Q9Y6N9

effect of a mutation on the interaction	Variant
decreasing interaction	D458V

Variants of: B2
Conditions: with ush1g_human USH1G, Q495M9

effect of a mutation on the interaction	Variant
decreasing interaction	R103H
